Key:
[1] = system: Glial Fibrillary acidic Protein (GFAP) expression; assay: Reactive gliosis after spinal cord injury (GFAP staining); type: in vivo, mouse; settings: D5 following surgery
Experimental: At D5, lesioned animals which received either p65 (n=3) or reversed p65 (n=3) were transcardiacally perfused. Spinal cords were sectioned in the sagittal plane at 20 μm intervals in blocks of 10 mm length at the lesion site. To examine lesion extent, Nissl staining was performed in series of 1-in-6 sections in all animals. Series of 1-in-3 sections were stained with the MenB anti-PSA (mouse IgM) and/or anti-GFAP (mouse IgG) antibodies.
To assess the effect of the peptide, quantification of the Glial Fibrillary acidic Protein (GFAP) expression as an index of reactive gliosis, was undertaken in a subset of animals taken D5 following surgery. These animals were selected in a blinded manner for quantification. 3 p65 (10 slices per animal) and 3 p65-reverse (10 slices per animal) animals were analyzed. Double-labelling was performed with MenB anti-PSA antibody. Quantification was also performed in a blinded manner.

[2] = molecular target: BSA (Bos taurus, UniProt P02769); assay: Peptide-BSA conjugate ELISA, control wells coated only with blocking solution (BSA); type: binding; settings: biotinylated peptide-BSA conjugate, BSA-blocked wells, no mAb
Text: • mAb 735 and 30H12 • MaxiSorp™ plates (NUNC) for coating the antibody: ELISA plates • microtiter plates (NUNC) for peptide dilution: dilution plates • Biotinylated peptide-BSA conjugates prepared as above described • Extravidin alkaline phosphatase-avidin conjugate (SIGMA E2636) • p-nitrophenyl-phosphatase alkaline substrate (SIGMA 104-105) 2.1.2) Buffers • PBS pH 7.4 • Blocking solution: 0.5% BSA in PBS • TBS • TBST: TBS containing 0.05% Tween 20 • Extravidin alkaline phosphatase-avidin conjugate solution: 1/5000 in TBST • Alkaline phosphatase substrate solution; 1 tablet in 5 ml 50 mM NaHCO3, 1 mM MgCl2 solution, pH 9.6. • mixed competitor solution: 1 mM colominic acid with a peptide-BSA conjugate gradient in TBST 2.1.3) Method
Maxisorp™ plate wells were coated with 100 μl mAb solution (25 μg/ml) for 2 h at room temperature. The control wells of the ELISA plates were only coated with the blocking solution. In parallel, the peptide-BSA conjugate dilution plates were blocked with 200 μl blocking solution for 2 h. The antibody coated wells and the control wells were blocked with 200 μl blocking solution for 1 h. In parallel the peptide-BSA conjugate dilution plates were washed 6 times with TBST and 120 μl TBST was added to the wells. An appropriate volume of peptide-BSA conjugate solution was added to the first well and the volume adjusted to 140 μl with TBST. The peptide-BSA conjugate in well one was diluted in the ratio 1/7 by taking 20 μl out of the first well and transferring into the second also to achieve the total volume of 140 μl. This was repeated for the remaining wells. The peptide-BSA conjugate dilutions for the control wells were done the same way. The blocked ELISA plates were washed 6 times with TBST and the peptide-BSA conjugate dilutions or 100 μl of the mixed competitor solution was added to the wells. After incubation for 1 h, the wells were washed 10 times with TBST and 100 μl of the alkaline phosphatase substrate solution was added to the wells. The plates were read out after 10 to 60 min using a microplate reader at 405 nm.
The specificity of peptide p21 (SEQ ID NO: 1) was investigated in a competition ELISA using biotinylated p21-BSA conjugate and a randomized variant of p21 (p22) conjugate as a control. The results presented in Tables X and XI are expressed as percentage of binding by comparison with peptide p21 at the highest concentration (9.45 10^-5 M) which corresponds to 100% binding.

BSA, sequence (P02769 25-607): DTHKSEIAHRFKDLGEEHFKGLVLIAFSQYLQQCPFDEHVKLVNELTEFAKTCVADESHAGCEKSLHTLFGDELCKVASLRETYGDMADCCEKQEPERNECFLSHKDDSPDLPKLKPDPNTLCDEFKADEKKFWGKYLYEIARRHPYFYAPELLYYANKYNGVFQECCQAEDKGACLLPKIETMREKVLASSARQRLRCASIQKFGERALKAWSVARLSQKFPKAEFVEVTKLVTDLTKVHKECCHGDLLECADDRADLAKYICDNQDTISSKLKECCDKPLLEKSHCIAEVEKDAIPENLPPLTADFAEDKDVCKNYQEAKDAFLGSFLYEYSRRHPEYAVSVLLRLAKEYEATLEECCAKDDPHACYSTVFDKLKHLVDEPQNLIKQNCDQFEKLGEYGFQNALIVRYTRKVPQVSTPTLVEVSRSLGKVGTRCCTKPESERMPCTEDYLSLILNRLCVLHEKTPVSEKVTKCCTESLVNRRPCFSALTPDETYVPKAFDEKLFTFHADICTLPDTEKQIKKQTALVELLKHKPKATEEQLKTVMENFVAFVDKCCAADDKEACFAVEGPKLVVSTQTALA

Sequence | Reduction of reactive gliosis (GFAP staining) compared with reverse p65-treatment [1] [%] | Binding of peptide to BSA control wells (percentage of binding) ([2]; peptide 1.62 10^−9 M) [%] | Binding of peptide to BSA control wells (percentage of binding) ([2]; peptide 1.67 10^−5 M) [%] | Binding of peptide to BSA control wells (percentage of binding) ([2]; peptide 2.86 10^−9 M) [%] | Binding of peptide to BSA control wells (percentage of binding) ([2]; peptide 2.94 10^−6 M) [%] | Binding of peptide to BSA control wells (percentage of binding) ([2]; peptide 5.04 10^−10 M) [%] | Binding of peptide to BSA control wells (percentage of binding) ([2]; peptide 5.20 10^−7 M) [%] | Binding of peptide to BSA control wells (percentage of binding) ([2]; peptide 8.89 10^−11 M) [%] | Binding of peptide to BSA control wells (percentage of binding) ([2]; peptide 9.27 10^−8 M) [%] | Binding of peptide to BSA control wells (percentage of binding) ([2]; peptide 9.45 10^−5 M) [%]
CSSVTAWTTGCG [p65] | 40 |  |  |  |  |  |  |  |  | 
DSPLVPFIDFHP [p21] |  | 0 ± 0 | 1 ± 0 | 0 ± 0 | 0 ± 0 | 0 ± 0 | 0 ± 0 | 0 ± 0 | 0 ± 0 | 3 ± 1

From US7417025B2, “Use of poly-α2,8-sialic acid mimetic peptides to modulate NCAM functions” (Centre National de la Recherche Scientifique, priority 2002, dated 2008)
